Measurements as given in patent publication EP2467164A2 (dated 2012).

How the values were obtained:
ErbB1 on AdrR cells = target: T1, ErbB1 on AdrR cells (UniProt P00533 25-1210, limits assumed); assay: flow cytometry, biotinylated BTC (Figure 15)
T1 construct: whole, on cells; also called EGFR; ErbBl

recombinant ErbB3 = target: T2, recombinant ErbB3 (human, UniProt P21860 20-643); assay: surface plasmon resonance, antibody as ligand, recombinant ErbB3 as analyte
T2 construct: also called HER3

[1] = target: T3, ErbB3 expressed on MALME-3M melanoma cells (human, UniProt P21860 20-1342); assay: cell binding assay on MALME-3M cells, flow cytometry, one-site model
T3 construct: Endogenous ErbB3 of the MALME-3M cell line; also called ErbB3 on MALME-3M cells

ErbB3 = target: T4, ErbB3 (human, UniProt P21860 20-643, limits assumed); assay: KinExA
T4 construct: also called ErbB3 domain; HER3

ErbB3 on AdrR cells = ErbB3 on AdrR cells (human, UniProt P21860 20-1342); assay: cell-based or functional assay

| binding result (ErbB1 on AdrR cells) | Kd (recombinant ErbB3) | Kd [1] | Kd (ErbB3) | koff (ErbB3) | kon (ErbB3) | BTC-induced ErbB3 phosphorylation in AdrR cells (IC50) (ErbB3 on AdrR cells) | HRG-induced ErbB3 phosphorylation in AdrR cells (IC50) (ErbB3 on AdrR cells) | Binder |
| --- | --- | --- | --- | --- | --- | --- | --- | --- |
| binds | – | – | – | – | – | – | – | betacellulin (ligand, UniProt P35070 32-111, looked up, biotinylated in the FACS assay of Example 7 (site not stated), also called BTC; biotinylated BTC) DGNSTRSPETNGLLCGDPEENCAATTTQSKRKGHFSRCPKQYKHYCIKGRCRFVVAEQTPSCVCDEGYIGARCERVDLFY |
| – | ~8 nM | ~1.3 nM | – | – | – | – | – | Ab #3 (antibody, V domains shown) VH: EVQLLESGGGLVQPGGSLRLSCAASGFTFSAYNMRWVRQAPGKGLEWVSVIYPSGGATRYADSVKGRFTISRDNSKNTLYLQMNSLRAEDTAVYYCARGYYYYGMDVWGQGTLVTVSS VL: QSVLTQPPSASGTPGQRVTISCSGSDSNIGRNYIYWYQQFPGTAPKLLIYRNNQRPSGVPDRISGSKSGTSASLAISGLRSEDEAEYHCGTWDDSLSGPVFGGGTKLTVL |
| – | ~4 nM | ~4 nM | 0.769 nM | 0.00011 s⁻¹ | 143000 M⁻¹ s⁻¹ | 5.9 nM | 2.4 nM | Ab #6 (antibody, V domains shown, also called MM-121; anti-ErbB3 antibody Ab #6) VH: EVQLLESGGGLVQPGGSLRLSCAASGFTFSHYVMAWVRQAPGKGLEWVSSISSSGGWTLYADSVKGRFTISRDNSKNTLYLQMNSLRAEDTAVYYCTRGLKMATIFDYWGQGTLVTVSS VL: QSALTQPASVSGSPGQSITISCTGTSSDVGSYNVVSWYQQHPGKAPKLIIYEVSQRPSGVSNRFSGSKSGNTASLTISGLQTEDEADYYCCSYAGSSIFVIFGGGTKVTVL |
